From patent US20250154238A1, “METHODS AND COMPOSITIONS FOR TREATING AND PREVENTING FIBROSIS” (YALE UNIVERSITY, priority 2022, published 2025)

Key:
[1] = target: recombinant mouse epiregulin (mouse) (UniProt Q61521)
[2] = target: recombinant human epiregulin containing the epidermal growth factor (EGF) domain (R&D Biosciences Cat #1195-EP) (human) (UniProt O14944); experiment: cell-based or functional assay
Chain of recombinant human epiregulin containing the epidermal growth factor (EGF) domain (R&D Biosciences Cat #1195-EP) (human) (O14944 63-108 limits assumed): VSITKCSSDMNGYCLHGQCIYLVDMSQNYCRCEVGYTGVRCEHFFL

Chain of recombinant mouse epiregulin (mouse) (Q61521 56-101 limits assumed): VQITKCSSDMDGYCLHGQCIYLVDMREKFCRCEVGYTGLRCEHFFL

IC50 of inhibition of HFF proliferation induced by 100 ng/ml rmEreg (GFP fluorescence) [1]: 0.1 µg/mL
IC50 of inhibition of epiregulin-induced HFF proliferation (rhEreg 100 ng/ml) [2]: 0.16 µg/mL
Substance: rat anti-human/mouse neutralizing epiregulin antibody (R&D Systems MAB1068, clone 189611)
